According to IntAct's records for PubMed 22484091:

B1: BRO1 domain-containing protein BROX (Homo sapiens), Q5VW32 (parent)
chain: MTHWFHRNPLKATAPVSFNYYGVVTGPSASKICNDLRSSRARLLELFTDLSCNPEMMKNAADSYFSLLQGFINSLDESTQESKLRYIQNFKWTDTLQGQVPSAQQDAVFELISMGFNVALWYTKYASRLAGKENITEDEAKEVHRSLKIAAGIFKHLKESHLPKLITPAEKGRDLESRLIEAYVIQCQAEAQEVTIARAIELKHAPGLIAALAYETANFYQKADHTLSSLEPAYSAKWRKYLHLKMCFYTAYAYCYHGETLLASDKCGEAIRSLQEAEKLYAKAEALCKEYGETKGPGPTVKPSGHLFFRKLGNLVKNTLEKCQRENGFIYFQKIPTEAPQLELKANYGLVEPIPFEFPPTSVQWTPETLAAFDLTKRPKDDSTKPKPEEEVKPVKEPDIKPQKDTGCYIS
B2: BRO1 domain-containing protein BROX (Homo sapiens), Q5VW32 (parent)
chain: B1 chain
partner: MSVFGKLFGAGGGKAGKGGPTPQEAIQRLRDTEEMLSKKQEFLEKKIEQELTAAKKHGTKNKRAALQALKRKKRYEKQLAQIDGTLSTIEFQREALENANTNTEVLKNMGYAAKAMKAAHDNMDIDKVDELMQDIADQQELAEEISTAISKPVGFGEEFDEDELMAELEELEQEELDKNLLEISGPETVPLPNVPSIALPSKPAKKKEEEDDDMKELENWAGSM
B3: Charged multivesicular body protein 4b (Homo sapiens), Q9H444 (parent)
chain: B2 partner

Variants of: B1
Details: with CHMP5, Q9NZZ3-1
Chain of CHMP5, Q9NZZ3-1 (Q9NZZ3 whole entry): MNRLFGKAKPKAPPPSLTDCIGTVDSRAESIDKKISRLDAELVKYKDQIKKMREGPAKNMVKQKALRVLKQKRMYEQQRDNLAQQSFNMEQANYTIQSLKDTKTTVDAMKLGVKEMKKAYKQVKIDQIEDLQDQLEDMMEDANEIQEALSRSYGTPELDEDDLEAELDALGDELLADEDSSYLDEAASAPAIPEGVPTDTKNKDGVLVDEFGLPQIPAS

Variant	effect of a mutation on the interaction
MTHWFHRNPLKATAPVSFNYYGVVTGPSASKICNDLRSSRARLLELFTDLSCNPEMMKNAADSYFSLLQGFINSLDESTQESKLRYIQNFKWTDTLQGQVPSAQQDAVFELISMGFNVALWYTKYASRLAGKENITEDEAKEVHRSLKIAAGIFKHLKESHLPKLITPAEKGRDLESRLIEAYVIQCQAEAQEVTIARAIELKHAPGLIAALAYETANFYQKADHTLSSLEPAYSAKWRKYLHLKMCFYTAYAYCYHGETLLASDKCGEAIRSLQEAEKLYAKAEALCKEYGETKGPGPTVKPSGHLFFRKLGNLVKNTLEKCQRENGFIYFQKIPTEAPQLELKANAGLVEPIPFEFPPTSVQWTPETLAAFDLTKRPKDDSTKPKPEEEVKPVKEPDIKPQKDTGCYIS [Y348A]	disrupting interaction strength
MTHWFHRNPLKATAPVSFNYYGVVTGPSASKICNDLRSSRARLLELFTDLSCNPEMMKNAADSYFSLLQGFINSLDESTQESKLRYIQNFKWTDTLQGQVPSAQQDAVFELISMGFNVALWYTKYASRLAGKENITEDEAKEVHRSLKIAAGIFKHLKESHLPKLITPAEKGRDLESRLIEAYVIQCQAEAQEVTIARAIELKHAPGDIAADAYETANFYQKADHTLSSLEPAYSAKWRKYLHLKMCFYTAYAYCYHGETLLASDKCGEAIRSLQEAEKLYAKAEALCKEYGETKGPGPTVKPSGHLFFRKLGNLVKNTLEKCQRENGFIYFQKIPTEAPQLELKANYGLVEPIPFEFPPTSVQWTPETLAAFDLTKRPKDDSTKPKPEEEVKPVKEPDIKPQKDTGCYIS [L208D;L212D]	disrupting interaction strength
MTHWFHRNPLKATAPVSFNYYGVVTGPSASKICNDLRSSRARLLELFTDLSCNPEMMKNAADSYFSLLQGFINSLDESTQESKLRYIQNFKWTDTLQGQVPSAQQDAVFELISMGFNVALWYTKYASRLAGKENITEDEAKEVHRSLKIAAGIFKHLKESHLPKLITPAEKGRDLESRLIEAYVIQCQAEAQEVTIARAIELKAAPGLIAALAYETANFYQKADHTLSSLEPAYSAKWRKYLHLKMCFYTAYAYCYHGETLLASDKCGEAIRSLQEAEKLYAKAEALCKEYGETKGPGPTVKPSGHLFFRKLGNLVKNTLEKCQRENGFIYFQKIPTEAPQLELKANYGLVEPIPFEFPPTSVQWTPETLAAFDLTKRPKDDSTKPKPEEEVKPVKEPDIKPQKDTGCYIS [H204A]	disrupting interaction strength

Variants of: B2
Details: with chm4b_human CHMP4B

Variant	effect of a mutation on the interaction
MTHWFHRNPLKATAPVSFNYYGVVTGPSASKICNDLRSSRARLLELFTDLSCNPEMMKNAADSYFSLLQGFINSLDESTQESKLRYIQNFKWTDTLQGQVPSAQQDAVFELISMGFNVALWYTKYASRLAGKENITEDEAKEVHRSLKIAAGIFKHLKESHLPKLITPAEKGRDLESRLIEAYVIQCQAEAQEVTIARAIELKHAPGDIAADAYETANFYQKADHTLSSLEPAYSAKWRKYLHLKMCFYTAYAYCYHGETLLASDKCGEAIRSLQEAEKLYAKAEALCKEYGETKGPGPTVKPSGHLFFRKLGNLVKNTLEKCQRENGFIYFQKIPTEAPQLELKANYGLVEPIPFEFPPTSVQWTPETLAAFDLTKRPKDDSTKPKPEEEVKPVKEPDIKPQKDTGCYIS [L208D;L212D]	disrupting interaction strength

Variants of: B3
Details: with brox_human BROX

Variant	effect of a mutation on the interaction
MSVFGKLFGAGGGKAGKGGPTPQEAIQRLRDTEEMLSKKQEFLEKKIEQELTAAKKHGTKNKRAALQALKRKKRYEKQLAQIDGTLSTIEFQREALENANTNTEVLKNMGYAAKAMKAAHDNMDIDKVDELMQDIADQQELAEEISTAISKPVGFGEEFDEDELMAELEELEQEELDKNLLEISGPETVPLPNVPSIALPSKPAKKKEEEDDDMKELENAAGSM [W220A]	decreasing interaction strength
MSVFGKLFGAGGGKAGKGGPTPQEAIQRLRDTEEMLSKKQEFLEKKIEQELTAAKKHGTKNKRAALQALKRKKRYEKQLAQIDGTLSTIEFQREALENANTNTEVLKNMGYAAKAMKAAHDNMDIDKVDELMQDIADQQELAEEISTAISKPVGFGEEFDEDELMAELEELEQEELDKNLLEISGPETVPLPNVPSIALPSKPAKKKEEEDDDMKEAENWAGSM [L217A]	decreasing interaction strength
